Laboratory results reported in the Human Domainome abundance scans (Beltran et al. 2025).

B1: Double-stranded RNA-binding protein Staufen homolog 1, residues 183 to 249; numbered along this chain, O95793 (parent)
chain: KSEISQVFEIALKRNLPVNFEVARESGPPHMKNFVTKVSVGEFVGEGEGKSKKISKKNAAIAVLEEL

Variants of: B1
Assay: abundance fitness (aPCA) (normalised: wild type 0, dead -1); higher = more abundant; growth selection in yeast, the domain comes from the species named
Settings: Homo sapiens

Abundance fitness: each site, then its substitutions
K56: H -0.743, C -0.524, W -0.825, L -0.36, P -0.997, N -0.405, V -0.32, I -0.127, D -0.661, R -0.042, A -0.457, G -0.599, M -0.35, Y -0.254, Q -0.291, E -0.504, F -0.476
S55: H -0.895, D -0.918, K -0.889, L -0.843, E -0.662, G -0.818, A -0.092, N -0.8, C -0.535, T -0.815, W -1, Y -1.07, Q -0.769, M -0.931, V -0.865, I -0.718, F -0.915
I61: R 0.002, Q -0.14, F -0.39, N -0.181, E -0.245, C -0.126, M -0.095, S -0.045, L -0.061, H -0.218, A 0.002, D -0.53, T -0.292, Y -0.478, G -0.184, P -0.556, W -0.624, K -0.047, V -0.104
E65: P -0.386, F -0.737, S 0.003, M -0.336, I -0.573, G -0.079, Y -0.212, C -0.348, V -0.584, L -0.417, R 0.093, T -0.082, K 0.118, A -0.038, W -0.388, D -0.081, Q -0.016, H -0.051
L67: N -0.584, P -0.526, A -0.509, S -0.603, Q -0.423, D -0.706, C -0.693, F -0.355, T -0.6, K -0.53, V -0.439, W -0.465, G -0.438, R -0.751, H -0.299, E -0.743, I -0.114, Y -0.873, M 0
K53: M -0.278, C -0.284, V -0.22, W -0.214, F -0.175, Q -0.207, A -0.129, T -0.311, R -0.042, E -0.049, P -0.284, H -0.263, N -0.243, G -0.243, L -0.235, I -0.225, D -0.192
A62: V -0.403, F -0.787, C -0.223, G -0.302, I -0.384, E -0.353, K 0.023, N 0.035, M -0.226, T -0.381, R -0.121, H -0.242, D -0.185, Q -0.086, S -0.112, L -0.68, P -0.56, Y -0.788
A59: C -0.663, F -0.911, I -1.03, K -0.717, L -0.806, T -0.869, R -0.843, M -0.753, D -0.718, Y -1.16, W -0.937, G -0.61, E -0.798, S -0.608, V -1.03, N -0.705, P -1.08, H -1.04, Q -0.785
K57: F -0.837, T 0.17, S -0.43, V -0.218, L -0.163
L64: I -0.584, C -0.209, G -0.44, Q -0.448, P -0.454, K -0.472, V -0.5, Y -0.713, M -0.218, R -0.517, W -0.67, A -0.473, E -0.433, S -0.475, F -1.15, D -0.492, N -0.423
V63: P -0.577
